Test results as given in paper doi:10.1101/2023.05.29.542693 (bioRxiv, 2023).

Key:
[1] = molecular target: Escherichia coli GroEL (wild-type, tetradecamer) (E. coli, UniProt P0A6F5 1-548); assay: cryo-EM structure
cryo-EM structure = molecular target: the molecule itself; assay: cryo-EM structure

Chain of Escherichia coli GroEL (wild-type, tetradecamer) (P0A6F5 whole entry): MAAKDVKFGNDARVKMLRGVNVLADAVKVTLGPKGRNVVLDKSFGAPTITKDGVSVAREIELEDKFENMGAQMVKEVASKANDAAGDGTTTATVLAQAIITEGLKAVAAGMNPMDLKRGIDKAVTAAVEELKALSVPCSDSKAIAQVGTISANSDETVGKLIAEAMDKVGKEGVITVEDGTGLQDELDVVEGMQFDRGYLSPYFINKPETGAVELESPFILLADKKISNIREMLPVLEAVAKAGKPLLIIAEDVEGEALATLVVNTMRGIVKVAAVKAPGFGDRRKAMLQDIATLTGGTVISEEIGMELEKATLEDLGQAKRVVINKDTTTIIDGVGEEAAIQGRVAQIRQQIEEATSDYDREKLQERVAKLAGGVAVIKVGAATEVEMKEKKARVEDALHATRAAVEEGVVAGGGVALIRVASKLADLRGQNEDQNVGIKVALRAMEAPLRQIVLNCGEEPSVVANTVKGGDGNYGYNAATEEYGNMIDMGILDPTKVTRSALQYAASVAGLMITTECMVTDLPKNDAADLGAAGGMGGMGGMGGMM

B1: Escherichia coli GroES (heptameric co-chaperonin) (natural protein)
chain: MNIRPLHDRVIVKRKEVETKSAGGIVLTGSAAAKSTRGEVLAVGNGRILENGEVKPLDVKVGDIVIFNDGYGVKSEKIDNEEVLIMSESDILAIVEA
Does B1 bind [1]?
Result: binds

Does B1 bind (cryo-EM structure)?
Result: binds
